Data on 1 substance can be found in patent US20240252670A1, “ANTIBODY DRUG CONJUGATE, PREPARATION METHOD THEREFOR AND APPLICATION THEREOF” (TSINGHUA UNIVERSITY, priority 2021, published 2024).

The target in the experiment is PD-L1 on the surface of murine cells (MC38, B16, wild-type DC 2.4) (murine) (UniProt Q9EP73). In words: FACS on MC38 cells, FITC-labeled goat anti-human secondary antibody.
PD-L1 on the surface of murine cells (MC38, B16, wild-type DC 2.4) (murine), sequence (Q9EP73 19-290): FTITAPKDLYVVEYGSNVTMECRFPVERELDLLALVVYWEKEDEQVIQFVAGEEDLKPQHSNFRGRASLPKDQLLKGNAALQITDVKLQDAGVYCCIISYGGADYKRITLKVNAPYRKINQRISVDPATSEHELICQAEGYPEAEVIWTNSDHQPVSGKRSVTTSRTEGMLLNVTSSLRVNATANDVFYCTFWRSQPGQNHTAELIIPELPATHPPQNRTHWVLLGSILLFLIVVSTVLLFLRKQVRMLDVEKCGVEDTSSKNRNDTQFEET

For isotype control IgG (antibody), the MFI was 167 and the shift rate of the FITC positive signal relative to the NC group is 1.7%.
